T1: recombinant Factor VIII (CSL627, rVIII-SingleChain) (Homo sapiens (Human), UniProt P00451 20-2351)
T1 construct: also called FVIII
T1 sequence: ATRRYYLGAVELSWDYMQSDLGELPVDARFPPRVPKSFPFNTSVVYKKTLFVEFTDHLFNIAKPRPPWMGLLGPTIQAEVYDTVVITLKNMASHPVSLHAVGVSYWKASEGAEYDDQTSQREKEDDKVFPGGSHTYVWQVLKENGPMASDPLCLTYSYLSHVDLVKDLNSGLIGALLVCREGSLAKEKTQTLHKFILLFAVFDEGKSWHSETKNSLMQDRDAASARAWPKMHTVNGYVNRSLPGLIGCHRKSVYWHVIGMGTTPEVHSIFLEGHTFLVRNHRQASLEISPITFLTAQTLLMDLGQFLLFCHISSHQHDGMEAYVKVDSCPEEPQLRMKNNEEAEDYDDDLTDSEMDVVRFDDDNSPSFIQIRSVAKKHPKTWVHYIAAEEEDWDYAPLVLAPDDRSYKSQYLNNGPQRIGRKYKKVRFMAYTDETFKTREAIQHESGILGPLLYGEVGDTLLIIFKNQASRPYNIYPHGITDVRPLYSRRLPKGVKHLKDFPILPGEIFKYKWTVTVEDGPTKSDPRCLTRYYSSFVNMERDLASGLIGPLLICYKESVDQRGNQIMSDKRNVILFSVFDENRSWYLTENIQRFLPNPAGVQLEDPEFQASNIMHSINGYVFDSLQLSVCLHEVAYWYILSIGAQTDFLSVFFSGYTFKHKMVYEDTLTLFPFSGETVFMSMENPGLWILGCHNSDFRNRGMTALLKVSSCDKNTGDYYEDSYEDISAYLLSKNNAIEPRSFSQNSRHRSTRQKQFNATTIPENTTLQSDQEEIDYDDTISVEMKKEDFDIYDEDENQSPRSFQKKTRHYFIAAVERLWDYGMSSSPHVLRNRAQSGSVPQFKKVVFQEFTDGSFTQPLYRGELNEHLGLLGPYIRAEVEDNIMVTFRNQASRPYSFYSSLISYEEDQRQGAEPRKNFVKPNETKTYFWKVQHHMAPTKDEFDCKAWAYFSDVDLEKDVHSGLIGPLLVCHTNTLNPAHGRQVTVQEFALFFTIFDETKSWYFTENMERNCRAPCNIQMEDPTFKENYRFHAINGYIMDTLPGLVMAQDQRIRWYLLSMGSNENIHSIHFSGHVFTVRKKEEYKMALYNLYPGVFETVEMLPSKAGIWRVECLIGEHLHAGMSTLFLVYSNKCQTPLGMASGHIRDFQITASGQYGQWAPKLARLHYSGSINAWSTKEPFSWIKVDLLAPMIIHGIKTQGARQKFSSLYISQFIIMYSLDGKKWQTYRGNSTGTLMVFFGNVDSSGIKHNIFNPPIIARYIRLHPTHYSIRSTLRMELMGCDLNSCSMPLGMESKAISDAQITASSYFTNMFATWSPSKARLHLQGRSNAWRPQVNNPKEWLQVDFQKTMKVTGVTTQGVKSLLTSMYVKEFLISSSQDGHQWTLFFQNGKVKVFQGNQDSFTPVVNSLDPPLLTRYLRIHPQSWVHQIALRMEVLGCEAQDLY

B1: Hu-vWF[764-1270]-8His S766Y-R768E (other)
chain: SLYCEPPMVKLVCPADNLRAEGLECTKTCQNYDLECMSMGCVSGCLCPPGMVRHENRCVALERCPCFHQGKEYAPGETVKIGCNTCVCRDRKWNCTDHVCDATCSTIGMAHYLTFDGLKYLFPGECQYVLVQDYCGSNPGTFRILVGNKGCSHPSVKCKKRVTILVEGGEIELFDGEVNVKRPMKDETHFEVVESGRYIILLLGKALSVVWDRHLSISVVLKQTYQEKVCGLCGNFDGIQNNDLTSSNLQVEEDPVDFGNSWKVSSQCADTRKVPLDSSPATCHNNIMKQTMVDSSCRILTSDVFQDCNKLVDPEPYLDVCIYDTCSCESIGDCACFCDTIAAYAHVCAQHGKVVTWRTATLCPQSCEERNLRENGYECEWRYNSCAPACQVTCQHPEPLACPVQCVEGCHAHCPPGKILDELLQTCVDPEDCPVCEVAGRRFASGKKVTLNPSDPEHCQICHCDVVNLTCEACQEPGGLVVPPTDAPVSPTTLYVEDISEPPLHDFHHHHHHHH
B2: Hu-vWF[764-1270]-8His S766Y-R768H (other)
chain: SLYCHPPMVKLVCPADNLRAEGLECTKTCQNYDLECMSMGCVSGCLCPPGMVRHENRCVALERCPCFHQGKEYAPGETVKIGCNTCVCRDRKWNCTDHVCDATCSTIGMAHYLTFDGLKYLFPGECQYVLVQDYCGSNPGTFRILVGNKGCSHPSVKCKKRVTILVEGGEIELFDGEVNVKRPMKDETHFEVVESGRYIILLLGKALSVVWDRHLSISVVLKQTYQEKVCGLCGNFDGIQNNDLTSSNLQVEEDPVDFGNSWKVSSQCADTRKVPLDSSPATCHNNIMKQTMVDSSCRILTSDVFQDCNKLVDPEPYLDVCIYDTCSCESIGDCACFCDTIAAYAHVCAQHGKVVTWRTATLCPQSCEERNLRENGYECEWRYNSCAPACQVTCQHPEPLACPVQCVEGCHAHCPPGKILDELLQTCVDPEDCPVCEVAGRRFASGKKVTLNPSDPEHCQICHCDVVNLTCEACQEPGGLVVPPTDAPVSPTTLYVEDISEPPLHDFHHHHHHHH
B3: Hu-vWF[764-1270]-8His S766Y-R768G (other)
chain: SLYCGPPMVKLVCPADNLRAEGLECTKTCQNYDLECMSMGCVSGCLCPPGMVRHENRCVALERCPCFHQGKEYAPGETVKIGCNTCVCRDRKWNCTDHVCDATCSTIGMAHYLTFDGLKYLFPGECQYVLVQDYCGSNPGTFRILVGNKGCSHPSVKCKKRVTILVEGGEIELFDGEVNVKRPMKDETHFEVVESGRYIILLLGKALSVVWDRHLSISVVLKQTYQEKVCGLCGNFDGIQNNDLTSSNLQVEEDPVDFGNSWKVSSQCADTRKVPLDSSPATCHNNIMKQTMVDSSCRILTSDVFQDCNKLVDPEPYLDVCIYDTCSCESIGDCACFCDTIAAYAHVCAQHGKVVTWRTATLCPQSCEERNLRENGYECEWRYNSCAPACQVTCQHPEPLACPVQCVEGCHAHCPPGKILDELLQTCVDPEDCPVCEVAGRRFASGKKVTLNPSDPEHCQICHCDVVNLTCEACQEPGGLVVPPTDAPVSPTTLYVEDISEPPLHDFHHHHHHHH
B4: Hu-vWF[764-1270]-8His S766Y-R768F (other)
chain: SLYCFPPMVKLVCPADNLRAEGLECTKTCQNYDLECMSMGCVSGCLCPPGMVRHENRCVALERCPCFHQGKEYAPGETVKIGCNTCVCRDRKWNCTDHVCDATCSTIGMAHYLTFDGLKYLFPGECQYVLVQDYCGSNPGTFRILVGNKGCSHPSVKCKKRVTILVEGGEIELFDGEVNVKRPMKDETHFEVVESGRYIILLLGKALSVVWDRHLSISVVLKQTYQEKVCGLCGNFDGIQNNDLTSSNLQVEEDPVDFGNSWKVSSQCADTRKVPLDSSPATCHNNIMKQTMVDSSCRILTSDVFQDCNKLVDPEPYLDVCIYDTCSCESIGDCACFCDTIAAYAHVCAQHGKVVTWRTATLCPQSCEERNLRENGYECEWRYNSCAPACQVTCQHPEPLACPVQCVEGCHAHCPPGKILDELLQTCVDPEDCPVCEVAGRRFASGKKVTLNPSDPEHCQICHCDVVNLTCEACQEPGGLVVPPTDAPVSPTTLYVEDISEPPLHDFHHHHHHHH

Biological target: T1, recombinant Factor VIII (CSL627, …)
Assay: SPR, anti-His capture, FVIII injected, 37 C
Description: Binding kinetics were investigated by surface plasmon resonance using a Biacore 4000 biosensor at 37° C. Each mutant was captured from cell culture medium to a density of 40-150 RU on a CM-5 sensor chip pre-immobilised with anti-His antibody (14,000 RU). In an initial screening study, FVIII was injected over the captured mutants for 5 minutes at 1 nM and dissociation monitored for 5 minutes.
All sensorgrams were double referenced by subtraction of signals from a reference spot (containing only immobilised anti His antibody) and from a blank injection. Binding kinetics were determined by fitting the double referenced sensorgrams to a 1:1 kinetic model.

Binder	Kd	koff	kon
B1	569 pM	0.00322 s⁻¹	5.65e+06 M⁻¹ s⁻¹
B2	172 pM	0.00069 s⁻¹	4.02e+06 M⁻¹ s⁻¹
B3	320 pM	0.00102 s⁻¹	3.2e+06 M⁻¹ s⁻¹
B4	279 pM	0.00182 s⁻¹	6.51e+06 M⁻¹ s⁻¹

Source: patent US20190015483A1 (CSL BEHRING RECOMBINANT FACILITY, published 2019)
